The results in this text go back to patent US20110195067A1.

The experiment addresses FcγRIII (CD16) (human) (UniProt P08637). As to the kind of experiment: cell-based or functional assay.

FcγRIII (CD16) (human), sequence (P08637 17-254): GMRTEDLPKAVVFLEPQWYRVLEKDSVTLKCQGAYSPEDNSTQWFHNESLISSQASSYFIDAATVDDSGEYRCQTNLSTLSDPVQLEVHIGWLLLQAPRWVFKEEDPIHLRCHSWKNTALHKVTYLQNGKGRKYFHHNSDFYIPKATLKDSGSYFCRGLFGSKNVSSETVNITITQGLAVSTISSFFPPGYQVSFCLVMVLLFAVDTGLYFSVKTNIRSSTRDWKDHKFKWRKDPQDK

In the case of heat aggregated IgG, the IFN-γ secretion from PBMC, aggregated IgG (40 µg/ml) + IL-2 is 13 ng/mL; the TNF-α secretion from PBMC, aggregated IgG (40 µg/ml) + IL-2 is 2.46 ng/mL; the fold induction of PBMC proliferation over IL-2, 125 µg/mL of AIG came to 16 fold; the proliferative response of PBMC, 125 µg/mL of AIG and IL-2 came to 17400 CPM.

Regarding “anti-CD16 mAb 3G8 (Caltag Laboratories) (antibody)”, the IFN-γ secretion from PBMC, immobilized 3G8 (10 µg/ml) + IL-2 turned out to be 9.85 ng/mL; the TNF-α secretion from PBMC, immobilized 3G8 (10 µg/ml) + IL-2 turned out to be 3.32 ng/mL; the proliferative response of PBMC ([methyl-3H] thymidine), IL-2 and immobilized anti-CD16 mAb stood at 15500 CPM; the proliferative response of PBMC ([methyl-3H] thymidine), immobilized anti-CD16 mAb alone came out at 592 CPM.
